B1: HDV Ribozyme (parent)
chain: GGCCGGCAUGGUCCCAGCCUCCUCGCUGGCGCCGGCUGGGCAACAUUCCGAGGGGACCGUCCCCUCGGUAAUGGCGAAUGGGACCCA

Variants of: B1
Assay: self-cleavage, relative activity (ratio to wild type); higher = more cleavage; co-transcriptional

Variant | self-cleavage
C26G G39A | 0.18
U27G U72C | 0.32
U27A A78C | 0.0573
U27A A78G | 0.249
C26U C30G | 0.0941
G25U U60G | 0.229
U27A A70C | 0.782
U27A C66U | 0.789
C26U A56G | 1.08
C26U G80U | 0.433
U27C C63U | 0.73
C26A G59A | 1
U27G G55C | 0.779
C26G C57U | 1.02
C26G C85U | 0.956
U27A G53C | 0.831
G28A C66A | 0.0811
C26U G34U | 0.767
U27C U72C | 0.166
U27C G35U | 0.302
U27G A77U | 0.346
C26G G76U | 0.916
C26U G73A | 0.747
U27G A56C | 0.712

Variant | self-cleavage
U27A U46A | 0.831
C26A G54U | 1.03
U27C A87U | 0.6
U27A G29A | 0.135
C26A C64G | 0.95
C26G G80C | 0.212
U27C U60A | 1.09
C26A G82A | 0.721
C26U G52U | 0.956
C26U G52A | 1.14
C26U A45U | 0.77
C26G A45U | 0.895
C26G A45C | 0.364
C26G A45G | 1.04
C26U G68A | 1.02
C26U G68U | 1.13
C26U G68C | 1.03
C26U A77C | 0.883
U27G G54C | 0.914
U27C G76C | 1.21
C26A U47A | 0.731
C26A U47G | 0.923
C26U A43C | 0.831
U27A G73A | 0.391

Variant | self-cleavage
C26G C30G | 0
C26U C85U | 0.935
C26U C85G | 1.22
U27C C64A | 0.705
C26A U72C | 0.867
U27G G38U | 0.133
U27G G38C | 0.0692
U27C G59U | 0.76
C26A A71C | 1.07
G28A A56C | 0
G28A A56U | 0.111
C26A C49U | 0.849
U27A C63G | 0.764
U27C A56G | 0.575
U27C A56U | 0.674
U27C A56C | 0.612
G25U G81U | 0.138
U27C G80U | 0.21
C26G G28A | 0.0449
C26G A78C | 0
G28A | 0.0977
C26G A56G | 0.795
G28A C86G | 0.0678
U27A G67C | 0.59

Variant | self-cleavage
U27A G67A | 1.32
C26A C30A | 0.491
U27A C44G | 0.289
U27A C44A | 0.369
C26G C58U | 0.931
G28A A43U | 0.0241
G28A A43G | 0.0739
C26U C66G | 0.861
C26A A87U | 1.21
U27A G80A | 0.499
U27C C48U | 0.604
U27C C48A | 1.02
U27A G76A | 0.997
C26G G82U | 0.604
U27G C41U | 0.831
C26U C61U | 0.941
C26U C61A | 1.06
C26G G34C | 0
G25U G76C | 0.224
G25U G76U | 0.389
G25U G76A | 0
U27G C49A | 0.886
G25U U72G | 0.181
G25U U72C | 0.111

Variant | self-cleavage
U27A G34A | 0.256
G28A A45G | 0.0415
U27C C36G | 0.185
C26G G29C | 0.0504
C26A U27C | 1.04
C26A U27G | 0.733
C26G U65C | 1.16
U27A U65C | 0.957
U27A U65G | 1.12
C26G U46G | 0.554
U27A C86A | 0.733
C26U U69G | 0.96
G25U U79A | 0.0875
U27G C64A | 0.705
C26A C36U | 0.629
C26U G38U | 0.616
U27C C62A | 0.54
U27A C61G | 0.504
U27A C61U | 0.997
U27A C30G | 0.166
U27G A51G | 1.03
U27G A51C | 0.906
C26A G53U | 0.932
U27A G38C | 0.0665

Variant | self-cleavage
C26A G28A | 0.166
U27C C58G | 0.7
C26U U46A | 0.731
C26U U46G | 0.787
C26U U79A | 1.04
C26U U79G | 1.03
C26U G31C | 0.542
U27A A51C | 0.86
G28A A70U | 0.203
U27A C41U | 1.07
C26A A78C | 0.284
U27C G52A | 0.884
C26G G67C | 0.8
C26U C49A | 1.11
C26U C49U | 0.89
C26U C49G | 0.973
C26U C63G | 0.883
U27A G68C | 0.688
C26U G82C | 0.431
C26A C58G | 1.09
C26A C58A | 1.24
U27A U60A | 0.918
C26A G50A | 0.881
C26G G38A | 0.0978

Variant | self-cleavage
U27C G53A | 0.696
U27C G53C | 0.898
U27A G59C | 0.939
U27A G59U | 0.95
C26U U47C | 1.02
U27G A87C | 0.869
U27G G29A | 0.283
C26G G50A | 0.923
C26A U37G | 0.19
C26A U37A | 0.166
U27G G80A | 0.533
C26G U60G | 0.525
U27A G81C | 0.356
C26G U37C | 1.01
C26G U37G | 0.111
U27A C64A | 0.703
U27A C64G | 1.05
C26G G53U | 0.812
U27A U47C | 0.391
U27A U47A | 0.7
C26U G40U | 1.03
U27C A77U | 0.262
U27A C85G | 0.793
G25U U69A | 0.196

Variant | self-cleavage
G25U U69C | 0.229
U27G C36G | 0.0665
C26U U27A | 0.886
C26G C61G | 0.811
C26G C61U | 1.06
U27C C75A | 0.155
C26G A70U | 0.875
U27A G74U | 0.427
U27A G74A | 0.0437
C26U C41A | 1.15
U27A U72C | 0.277
C26U U60A | 1.05
C26U U60G | 0.831
C26A G55C | 0.862
C26A G55U | 1.17
U27G A78U | 0.0831
C26G C62A | 0.985
C26G C62U | 1.09
U27G C61U | 0.831
C26A G67C | 0.985
C26A G67U | 1.04
C26G U72G | 0.755
C26G U72A | 0.615
C26G G31U | 0.48

Variant | self-cleavage
C26G G31A | 0.744
C26G G31C | 0.284
C26U G74U | 0.777
C26U C62A | 1.08
C26U C62G | 0.618
C26U C62U | 1.1
C26G A43G | 0.437
U27C C44U | 0.19
G28A C36A | 0.203
G28A C36U | 0.0811
C26U A78C | 0.35
U27G A70C | 0.554
U27G G53U | 0.923
C26G G81U | 0.567
U27G G34U | 0.538
U27G G39C | 0.0723
C26G C44U | 1.04
U27C U65C | 0.798
G28A A51U | 0.138
G25U G80C | 0.0733
C26G A83G | 0.851
C26G A83U | 0.917
G28A A71G | 0.0831
U27G C75A | 0.0755

Variant | self-cleavage
U27G U69C | 0.969
U27G U69G | 0.798
U27A G52U | 0.846
C26G G54A | 0.655
U27A C57A | 0.855
U27A C33U | 1.01
U27A C33A | 0.256
U27G G31A | 0.539
C26A C61G | 1.04
C26A C61A | 0.865
C26A C61U | 0.974
C26A A45C | 0.554
C26A A45G | 0.978
C26A A45U | 1.19
U27C C57A | 0.692
C26U A83G | 0.776
C26U A83U | 0.79
U27C C61G | 0.795
C26G G55C | 1.04
U27C C84G | 0.554
U27C G54U | 0.845
U27C G54A | 0.598
U27C G28C | 0.123
U27A G54A | 0.961

Variant | self-cleavage
C26A C32G | 0
C26A C57U | 0.959
C26A U65C | 1.21
U27G C48U | 0.942
U27G C48A | 0.72
C26G A51C | 1.13
U27A G82U | 0.906
G28A A87U | 0.0932
U27C A45G | 0.511
U27C A42C | 0.431
U27G A83C | 0.831
U27G A71G | 0.875
U27G A71U | 0.598
C26A G31C | 0.453
C26A G31A | 0.818
G28A C48U | 0.0997
U27A G28U | 0.158
U27C C85G | 0.751
U27G C44G | 0.598
C26U G50U | 1.12
C26U G50C | 1
C26A G68U | 0.929
C26A G68C | 0.87
G25U U37A | 0.0831

Variant | self-cleavage
U27C G34U | 0.185
U27C G34C | 0.106
U27G C86G | 0.745
U27C G74U | 0.332
U27C G74C | 0.383
C26G C66A | 1.05
C26A A51G | 1.11
C26A G40U | 0.946
U27A C49G | 0.617
U27G U79G | 0.427
U27G U79A | 0.462
U27C G29C | 0.107
U27C G29A | 0.125
C26A C62U | 1.12
C26A G52C | 0.872
U27C G82U | 0.208
U27C U69G | 0.712
C26G A42G | 0.639
C26G A42C | 0.158
U27A A56G | 1.08
C26G G74A | 0.441
C26G G74C | 0.0573
C26G A87G | 1.07
C26G A87C | 1.02

Variant | self-cleavage
G28A C63U | 0.107
G25U U65G | 0.269
G25U U27G | 0.185
C26A G74U | 0.519
C26A G74C | 0.237
G28A C75U | 0.0563
G28A C75G | 0
U27A A87G | 0.847
U27A A87U | 0.602
G28A C61G | 0.133
G28A C61A | 0.0791
G28A C30G | 0.117
G28A A83C | 0.0875
G28A A83U | 0.0308
G28A A83G | 0.0946
C26A G80C | 0.348
C26A G80U | 0.398
C26A G80A | 0.544
U27G G81A | 0.597
G28A A42U | 0.0723
G28A A42C | 0.128
U27G G67U | 0.764
C26G C84U | 0.696
C26U A70U | 1.01

Variant | self-cleavage
U27G C84A | 0.831
U27G C84G | 0.378
U27G C84U | 0.612
C26U A42C | 0.308
U27A C75G | 0.095
G28A A77G | 0.111
U27C C66U | 0.534
U27G G82C | 0.237
U27G G82U | 0.095
C26U G81A | 0.888
C26U G81U | 0.439
U27C G73U | 0.0449
U27C G73A | 0.231
U27A C62G | 0.929
U27A C62A | 0.872
U27G G74A | 0.229
U27C A43G | 0.383
U27C A43U | 0.237
C26A C75U | 0.203
C26G C33A | 0.298
U27A G55A | 1.08
G28A C84U | 0.0744
